Laboratory results published in paper PMC8122247, “Rational Design of Resveratrol O-methyltransferase for the Production of Pinostilbene” (International Journal of Molecular Sciences, 2021).
Positions count from the first letter of the chain named. Names and notes keep the numbering of the source.

B1: VvROMT variant W20A (enzyme, Vitis vinifera, UniProt B6VJS4 1-357, looked up)
chain: MDLANGVISAELLHAQAHVANHIFNFIKSMSLKCAIQLGIPDIIHNHGKPMTLPELVAKLPVHPKRSQCVYRLMRILVHSGFLAAQRVQQGKEEEGYVLTDASRLLLMDDSLSIRPLVLAMLDPILTKPWHYLSAWFQNDDPTPFHTAYERSFWDYAGHEPQLNNSFNEAMASDARLLTSVLLKEGQGVFAGLNSLVDVGGGTGKVAKAIANAFPHLNCTVLDLSHVVAGLQGSKNLNYFAGDMFEAIPPADAILLKWILHDWSNEECVKILKRCREAIPSKENGGKVIIIDMIMMKNQGDYKSTETQLFFDMTMMIFAPGRERDENEWEKLFLDAGFSHYKITPILGLRSLIEVYP
notes: resveratrol O-methyltransferase (VvROMT), Vitis vinifera, GenBank FM178870, with W20A; made by Gibson Assembly on pET25-GB1-ROMT; source: E. coli BL21 (DE3), purified (IMAC HisTrap FF, TEV cleavage, second IMAC); not shown: His tag (on GB1), N-terminal, cleaved; GB1, N-terminal, cleaved
B2: VvROMT variant F24A (enzyme, Vitis vinifera, UniProt B6VJS4 1-357, looked up)
chain: B1 chain with A20W, F24A
notes: resveratrol O-methyltransferase (VvROMT), Vitis vinifera, GenBank FM178870, with F24A; made by Gibson Assembly on pET25-GB1-ROMT; source: E. coli BL21 (DE3), purified (IMAC HisTrap FF, TEV cleavage, second IMAC); not shown: His tag (on GB1), N-terminal, cleaved; GB1, N-terminal, cleaved

Target: the molecule itself
Assay: SEC; Superdex 75 10/300 GL, 50 mM Tris-HCl pH 7.5, flow 0.5 mL/min; protein at 2 µg/µL, 150 to 300 µL; column calibrated with LMW Gel Filtration kit

| Protein | stoichiometry N |
| --- | --- |
| B1 | 2 |
| B2 | 2 |
